Results on two substances are retold here after publication PMC8387365.

pKd: −log10 of the molar value.

Assay [1] addresses PRC1(1-486) (UniProt O43663). The experiment in a line: BLI. Background: Biolayer interferometry detects binding as a change in optical thickness at a sensor tip.
Assay [2] addresses full-length PRC1 (Protein Regulator of Cytokinesis-1) (UniProt O43663). The assay can be described thus: BLI.
Assay [3] deals with microtubules polymerised from tubulin. The experiment in a line: TIRF microscopy, GFP intensity on immobilised microtubules.
Chain of microtubules polymerised from tubulin (P68363 whole entry, chain 1 of 2): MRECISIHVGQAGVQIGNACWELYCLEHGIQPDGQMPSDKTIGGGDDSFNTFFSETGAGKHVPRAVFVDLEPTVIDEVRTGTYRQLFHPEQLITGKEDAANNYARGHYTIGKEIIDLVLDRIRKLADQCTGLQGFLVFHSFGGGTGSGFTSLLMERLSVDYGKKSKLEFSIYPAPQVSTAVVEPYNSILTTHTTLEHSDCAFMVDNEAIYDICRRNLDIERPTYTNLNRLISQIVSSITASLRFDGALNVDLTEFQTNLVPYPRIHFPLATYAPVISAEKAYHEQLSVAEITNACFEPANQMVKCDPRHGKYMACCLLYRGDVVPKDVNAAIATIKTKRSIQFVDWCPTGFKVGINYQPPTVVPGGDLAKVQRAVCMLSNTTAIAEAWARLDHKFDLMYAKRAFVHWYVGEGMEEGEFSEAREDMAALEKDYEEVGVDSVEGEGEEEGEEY
Chain of microtubules polymerised from tubulin (A8K068 whole entry, chain 2 of 2, further chain): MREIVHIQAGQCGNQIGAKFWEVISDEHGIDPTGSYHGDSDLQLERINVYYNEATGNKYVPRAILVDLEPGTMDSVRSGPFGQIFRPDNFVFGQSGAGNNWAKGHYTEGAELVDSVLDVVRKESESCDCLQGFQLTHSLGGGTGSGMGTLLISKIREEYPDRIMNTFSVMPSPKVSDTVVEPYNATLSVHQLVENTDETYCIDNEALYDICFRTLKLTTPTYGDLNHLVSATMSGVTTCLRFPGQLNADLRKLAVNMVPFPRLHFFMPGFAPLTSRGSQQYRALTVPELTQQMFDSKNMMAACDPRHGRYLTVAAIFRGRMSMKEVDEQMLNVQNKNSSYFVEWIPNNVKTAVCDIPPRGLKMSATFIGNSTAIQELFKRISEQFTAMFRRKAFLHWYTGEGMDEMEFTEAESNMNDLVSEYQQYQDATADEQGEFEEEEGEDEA

Chain of full-length PRC1 (Protein Regulator of Cytokinesis-1) (O43663 whole entry): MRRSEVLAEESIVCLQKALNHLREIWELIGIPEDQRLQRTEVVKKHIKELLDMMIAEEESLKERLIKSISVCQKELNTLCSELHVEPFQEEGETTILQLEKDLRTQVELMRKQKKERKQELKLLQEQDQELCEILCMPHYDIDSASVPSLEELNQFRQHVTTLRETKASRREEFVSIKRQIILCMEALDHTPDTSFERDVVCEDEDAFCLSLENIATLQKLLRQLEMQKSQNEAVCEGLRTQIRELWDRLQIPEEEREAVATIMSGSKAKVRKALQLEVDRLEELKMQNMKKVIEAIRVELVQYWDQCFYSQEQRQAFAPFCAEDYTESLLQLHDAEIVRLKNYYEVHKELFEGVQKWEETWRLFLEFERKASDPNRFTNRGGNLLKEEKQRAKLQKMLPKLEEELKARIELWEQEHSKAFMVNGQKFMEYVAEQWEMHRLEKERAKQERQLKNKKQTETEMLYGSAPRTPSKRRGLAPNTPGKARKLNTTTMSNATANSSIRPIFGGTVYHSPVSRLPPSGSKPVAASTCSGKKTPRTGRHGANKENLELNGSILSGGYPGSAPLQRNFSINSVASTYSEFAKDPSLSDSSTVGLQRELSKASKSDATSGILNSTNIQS
Chain of PRC1(1-486) (O43663 1-486): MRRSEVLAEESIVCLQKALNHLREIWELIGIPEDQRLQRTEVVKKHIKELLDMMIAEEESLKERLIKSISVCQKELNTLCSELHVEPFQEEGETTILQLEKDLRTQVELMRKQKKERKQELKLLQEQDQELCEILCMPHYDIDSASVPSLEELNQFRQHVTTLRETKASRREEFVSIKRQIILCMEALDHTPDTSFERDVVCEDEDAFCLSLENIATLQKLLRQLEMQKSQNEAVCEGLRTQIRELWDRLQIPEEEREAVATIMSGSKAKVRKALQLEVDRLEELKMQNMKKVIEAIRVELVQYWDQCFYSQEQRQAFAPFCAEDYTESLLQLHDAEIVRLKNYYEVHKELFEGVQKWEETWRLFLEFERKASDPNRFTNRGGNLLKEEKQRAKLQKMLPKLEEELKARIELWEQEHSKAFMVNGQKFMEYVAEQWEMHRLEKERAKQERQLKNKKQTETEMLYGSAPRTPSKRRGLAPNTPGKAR

For orientation: pKd means the negative decadic logarithm of the Kd, by convention in mol/L. On to “CLASP1(654-1471)-GFP (domain or fragment)”, for which the pKd in assay [1] is 5.98; in assay [2], 5.92.

In assay [3], “full-length CLASP1-GFP (natural protein)” had a GFP intensity per pixel at 8 nM of 26.9, a GFP intensity per pixel at 40 nM of 95.3, a GFP intensity per pixel at 60 nM of 109 and a GFP intensity per pixel at 80 nM of 400. In assay [3], this substance had a GFP intensity per pixel at 160 nM of 398, a GFP intensity per pixel at 400 nM of 754 and a GFP intensity per pixel at 800 nM of 854.
